The results in this text go back to US12104181B2, “Compositions and methods for treating viral infections targeting TRIM7” (THE BOARD OF REGENTS OF THE UNIVERSITY OF TEXAS SYSTEM, priority 2021, dated 2024).

The assay concerns coxsackievirus B3 (CVB3-GFP). The format is cell-based. The settings on record: HeLa cells, replicate R1; for Percent Infected R1: GFP-positive cells within RFP-positive gate.

B1: TRIM11: human RING type E3 ligase expressed from lentiviral vector (protein, UniProt Q96F44 1-468, looked up)
E3 ubiquitin-protein ligase …: MAAPDLSTNLQEEATCAICLDYFTDPVMTDCGHNFCRECIRRCWGQPEGPYACPECRELSPQRNLRPNRPLAKMAEMARRLHPPSPVPQGVCPAHREPLAAFCGDELRLLCAACERSGEHWAHRVRPLQDAAEDLKAKLEKSLEHLRKQMQDALLFQAQADETCVLWQKMVESQRQNVLGEFERLRRLLAEEEQQLLQRLEEEELEVLPRLREGAAHLGQQSAHLAELIAELEGRCQLPALGLLQDIKDALRRVQDVKLQPPEVVPMELRTVCRVPGLVETLRRFRGDVTLDPDTANPELILSEDRRSVQRGDLRQALPDSPERFDPGPCVLGQERFTSGRHYWEVEVGDRTSWALGVCRENVNRKEKGELSAGNGFWILVFLGSYYNSSERALAPLRDPPRRVGIFLDYEAGHLSFYSATDGSLLFIFPEIPFSGTLRPLFSPLSSSPTPMTICRPKGGSGDTLAPQ
In the case of B1, the “Percent Infected R1” value is on record as 58.2% and the “Z score R1” value is −0.387.

B2: TRIM10: human RING type E3 ligase expressed from lentiviral vector (protein, UniProt Q9UDY6 1-481, looked up)
Tripartite motif-containing …: MASAASVTSLADEVNCPICQGTLREPVTIDCGHNFCRACLTRYCEIPGPDLEESPTCPLCKEPFRPGSFRPNWQLANVVENIERLQLVSTLGLGEEDVCQEHGEKIYFFCEDDEMQLCVVCREAGEHATHTMRFLEDAAAPYREQIHKCLKCLRKEREEIQEIQSRENKRMQVLLTQVSTKRQQVISEFAHLRKFLEEQQSILLAQLESQDGDILRQRDEFDLLVAGEICRFSALIEELEEKNERPARELLTDIRSTLIRCETRKCRKPVAVSPELGQRIRDFPQQALPLQREMKMFLEKLCFELDYEPAHISLDPQTSHPKLLLSEDHQRAQFSYKWQNSPDNPQRFDRATCVLAHTGITGGRHTWVVSIDLAHGGSCTVGVVSEDVQRKGELRLRPEEGVWAVRLAWGFVSALGSFPTRLTLKEQPRQVRVSLDYEVGWVTFTNAVTREPIYTFTASFTRKVIPFFGLWGRGSSFSLSS
modifications: lentiviral expression
notes: human RING type E3 ligase expressed from lentiviral vector
For B2, the “Percent Infected R1” value was determined as 58.7% and the “Z score R1” value is on record as −0.38.

B3: TRIM4: human RING type E3 ligase expressed from lentiviral vector (protein, UniProt Q9C037 1-500, looked up)
E3 ubiquitin-protein ligase …: MEAEDIQEELTCPICLDYFQDPVSIECGHNFCRGCLHRNWAPGGGPFPCPECRHPSAPAALRPNWALARLTEKTQRRRLGPVPPGLCGRHWEPLRLFCEDDQRPVCLVCRESQEHQTHAMAPIDEAFESYRTGNFDIHVDEWKRRLIRLLLYHFKQEEKLLKSQRNLVAKMKKVMHLQDVEVKNATQWKDKIKSQRMRISTEFSKLHNFLVEEEDLFLQRLNKEEEETKKKLNENTLKLNQTIASLKKLILEVGEKSQAPTLELLQNPKEVLTRSEIQDVNYSLEAVKVKTVCQIPLMKEMLKRFQVAVNLAEDTAHPKLVFSQEGRYVKNTASASSWPVFSSAWNYFAGWRNPQKTAFVERFQHLPCVLGKNVFTSGKHYWEVESRDSLEVAVGVCREDVMGITDRSKMSPDVGIWAIYWSAAGYWPLIGFPGTPTQQEPALHRVGVYLDRGTGNVSFYSAVDGVHLHTFSCSSVSRLRPFFWLSPLASLVIPPVTDRK
For B3, the “Percent Infected R1” value stood at 67.8% and the “Z score R1” value was −0.265.

B4: TRIM9: human RING type E3 ligase expressed from lentiviral vector (protein, UniProt Q9C026 1-710, looked up)
E3 ubiquitin-protein ligase …: MEEMEEELKCPVCGSFYREPIILPCSHNLCQACARNILVQTPESESPQSHRAAGSGVSDYDYLDLDKMSLYSEADSGYGSYGGFASAPTTPCQKSPNGVRVFPPAMPPPATHLSPALAPVPRNSCITCPQCHRSLILDDRGLRGFPKNRVLEGVIDRYQQSKAAALKCQLCEKAPKEATVMCEQCDVFYCDPCRLRCHPPRGPLAKHRLVPPAQGRVSRRLSPRKVSTCTDHELENHSMYCVQCKMPVCYQCLEEGKHSSHEVKALGAMWKLHKSQLSQALNGLSDRAKEAKEFLVQLRNMVQQIQENSVEFEACLVAQCDALIDALNRRKAQLLARVNKEHEHKLKVVRDQISHCTVKLRQTTGLMEYCLEVIKENDPSGFLQISDALIRRVHLTEDQWGKGTLTPRMTTDFDLSLDNSPLLQSIHQLDFVQVKASSPVPATPILQLEECCTHNNSATLSWKQPPLSTVPADGYILELDDGNGGQFREVYVGKETMCTVDGLHFNSTYNARVKAFNKTGVSPYSKTLVLQTSEVAWFAFDPGSAHSDIILSNDNLTVTCSSYDDRVVLGKTGFSKGIHYWELTVDRYDNHPDPAFGVARMDVMKDVMLGKDDKAWAMYVDNNRSWFMHNNSHTNRTEGGITKGATIGVLLDLNRKNLTFFINDEQQGPIAFDNVEGLFFPAVSLNRNVQVTLHTGLPVPDFYSSRASIA
Regarding B4, the “Percent Infected R1” value is given as 81.3% and the “Z score R1” value is reported as −0.093.

B5: RNF141: human RING type E3 ligase expressed from lentiviral vector (protein, UniProt Q8WVD5 2-230, looked up)
RING finger protein 141: GQQISDQTQLVINKLPEKVAKHVTLVRESGSLTYEEFLGRVAELNDVTAKVASGQEKHLLFEVQPGSDSSAFWKVVVRVVCTKINKSSGIVEASRIMNLYQFIQLYKDITSQAAGVLAQSSTSEEPDENSSSVTSCQASLWMGRVKQLTDEEECCICMDGRADLILPCAHSFCQKCIDKWSDRHRNCPICRLQMTGANESWVVSDAPTEDDMANYILNMADEAGQPHRP
On to B5, for which the “Percent Infected R1” value is given as 87.2% and the “Z score R1” value is −0.02.

B6: TRIM6: human RING type E3 ligase expressed from lentiviral vector (protein, UniProt Q9C030 1-488, looked up)
Tripartite motif-containing …: MTSPVLVDIREEVTCPICLELLTEPLSIDCGHSFCQACITPNGRESVIGQEGERSCPVCQTSYQPGNLRPNRHLANIVRRLREVVLGPGKQLKAVLCADHGEKLQLFCQEDGKVICWLCERSQEHRGHHTFLVEEVAQEYQEKFQESLKKLKNEEQEAEKLTAFIREKKTSWKNQMEPERCRIQTEFNQLRNILDRVEQRELKKLEQEEKKGLRIIEEAENDLVHQTQSLRELISDLERRCQGSTMELLQDVSDVTERSEFWTLRKPEALPTKLRSMFRAPDLKRMLRVCRELTDVQSYWVDVTLNPHTANLNLVLAKNRRQVRFVGAKVSGPSCLEKHYDCSVLGSQHFSSGKHYWEVDVAKKTAWILGVCSNSLGPTFSFNHFAQNHSAYSRYQPQSGYWVIGLQHNHEYRAYEDSSPSLLLSMTVPPRRVGVFLDYEAGTVSFYNVTNHGFPIYTFSKYYFPTTLCPYFNPCNCVIPMTLRRPSS
Consider B6, for which the “Percent Infected R1” value is reported as 67.4% and the “Z score R1” value is listed as −0.27.

B7: TRIM8: human RING type E3 ligase expressed from lentiviral vector (protein, UniProt Q9BZR9 1-551, looked up)
E3 ubiquitin-protein ligase …: MAENWKNCFEEELICPICLHVFVEPVQLPCKHNFCRGCIGEAWAKDSGLVRCPECNQAYNQKPGLEKNLKLTNIVEKFNALHVEKPPAALHCVFCRRGPPLPAQKVCLRCEAPCCQSHVQTHLQQPSTARGHLLVEADDVRAWSCPQHNAYRLYHCEAEQVAVCQYCCYYSGAHQGHSVCDVEIRRNEIRKMLMKQQDRLEEREQDIEDQLYKLESDKRLVEEKVNQLKEEVRLQYEKLHQLLDEDLRQTVEVLDKAQAKFCSENAAQALHLGERMQEAKKLLGSLQLLFDKTEDVSFMKNTKSVKILMDRTQTCTSSSLSPTKIGHLNSKLFLNEVAKKEKQLRKMLEGPFSTPVPFLQSVPLYPCGVSSSGAEKRKHSTAFPEASFLETSSGPVGGQYGAAGTASGEGQSGQPLGPCSSTQHLVALPGGAQPVHSSPVFPPSQYPNGSAAQQPMLPQYGGRKILVCSVDNCYCSSVANHGGHQPYPRSGHFPWTVPSQEYSHPLPPTPSVPQSLPSLAVRDWLDASQQPGHQDFYRVYGQPSTKHYVTS
On to B7, for which the “Percent Infected R1” value is on record as 70.1% and the “Z score R1” value was −0.235.
